Measurements as given in patent US20140363427A1.

What was measured:
[1] = target: F protein of RSV B-1 (respiratory syncytial virus B-1) (UniProt O36634); experiment: cell-based or functional assay
[2] = target: F protein of RSV B-wash (strain 18537) (respiratory syncytial virus B, strain 18537) (UniProt P13843); experiment: cell-based or functional assay
[3] = target: RSV F A2 mutant V278M (human RSV, A2 strain) (UniProt P03420); experiment: mutant F in HEK 293 cells
[4] = target: RSV F A2 mutant F351S (human RSV, A2 strain) (UniProt P03420); experiment: mutant F in HEK 293 cells
[5] = target: F protein of the parental RSV A2 strain (Example 11) (Respiratory Syncytial Virus strain A2) (UniProt P03420); experiment: cell-based or functional assay
[6] = target: F protein of the Motavizumab MARM (K272E) (Respiratory Syncytial Virus strain A2, escape mutant) (UniProt P03420); experiment: cell-based or functional assay
[7] = target: F protein of the 58C5 MARM (N63K, M115K, E295G) (Respiratory Syncytial Virus strain A2, escape mutant) (UniProt P03420); experiment: cell-based or functional assay
[8] = target: native RSV F protein from the RSV A2 strain (Respiratory Syncytial Virus strain A2) (UniProt P03420); experiment: cell-based or functional assay
[9] = target: RSV F A2 mutant Y86C (human RSV, A2 strain) (UniProt P03420); experiment: mutant F in HEK 293 cells
[10] = target: RSV F A2 mutant E82G (human RSV, A2 strain) (UniProt P03420); experiment: mutant F in HEK 293 cells
[11] = target: RSV F A2 mutant N371D (human RSV, A2 strain) (UniProt P03420); experiment: mutant F in HEK 293 cells
[12] = target: RSV F A2 mutant E463A (human RSV, A2 strain) (UniProt P03420); experiment: mutant F in HEK 293 cells
[13] = target: RSV F A2 mutant S403A (human RSV, A2 strain) (UniProt P03420); experiment: mutant F in HEK 293 cells

## Fab 58c5
[1]
  Average Plaque Count, RSV B-1, Fab at 0.003 µg/ml (12.3 at 0 µg/ml): 11.7
  Average Plaque Count, RSV B-1, Fab at 0.016 µg/ml (12.3 at 0 µg/ml): 8.7
  Average Plaque Count, RSV B-1, Fab at 0.08 µg/ml (12.3 at 0 µg/ml): 4.7
  Average Plaque Count, RSV B-1, Fab at 0.4 µg/ml (12.3 at 0 µg/ml): 0
  Average Plaque Count, RSV B-1, Fab at 2 µg/ml (12.3 at 0 µg/ml): 0
  Average Plaque Count, RSV B-1, Fab at 10 µg/ml (12.3 at 0 µg/ml): 0.3
  ED50, plaque reduction, RSV B-1: 0.84 nM
  ED50, plaque reduction, RSV B-1 (mass concentration): 0.042 µg/mL
[2]
  Average Plaque Count, RSV B/wash, Fab at 0.003 µg/ml (26.3 at 0 µg/ml): 23.3
  Average Plaque Count, RSV B/wash, Fab at 0.016 µg/ml (26.3 at 0 µg/ml): 16.3
  Average Plaque Count, RSV B/wash, Fab at 0.08 µg/ml (26.3 at 0 µg/ml): 5
  Average Plaque Count, RSV B/wash, Fab at 0.4 µg/ml (26.3 at 0 µg/ml): 0
  Average Plaque Count, RSV B/wash, Fab at 2 µg/ml (26.3 at 0 µg/ml): 0.7
  Average Plaque Count, RSV B/wash, Fab at 10 µg/ml (26.3 at 0 µg/ml): 1.3
  ED50, plaque reduction, RSV B/wash: 0.5 nM
  ED50, plaque reduction, RSV B/wash (mass concentration): 0.025 µg/mL

## IgG form of 58c5 (antibody)
[3]
  immunoluminescence Mean: 99.8
  immunoluminescence S1: 122
  immunoluminescence S2: 97.6
  immunoluminescence S3: 79.6
[4]
  immunoluminescence Mean: 7.4
  immunoluminescence S1: 2.9
  immunoluminescence S3: 6.1
  immunoluminescence S4: 14.7
[5]
  ED50, plaque reduction, RSV A2 parental: 0.115 nM
[6]
  ED50, plaque reduction, Motavizumab MARM: 0.173 nM
[1]
  ED50, plaque reduction, RSV B-1: 0.28 nM
[7]
  ED50, plaque reduction, 58C5 MARM: > 66.7 nM
[2]
  ED50, plaque reduction, RSV B/wash: 0.193 nM
[8]
  ED50, plaque reduction, RSV A2: 0.133 nM

## Motavizumab IgG (antibody)
[9]
  immunoluminescence Mean: 24.8
[10]
  immunoluminescence Mean: 42.1
[11]
  immunoluminescence Mean: 26.9
[12]
  immunoluminescence Mean: 101
[13]
  immunoluminescence Mean: 28
